The assay concerns the target T1, CBP-CRY1 (cryptochrome1 full-length, recombinant) (Arabidopsis thaliana, UniProt Q43125 1-681).
T1 construct: cryptochrome1 (CRY1), Arabidopsis thaliana, full-length; also called CRY1/pCal-n; CRY1 full-length; source: E. coli BL21 (DE3) codon plus, purified (electroelution), acetone-precipitated and resuspended in PBS
Briefly: pull-down; 5 ug purified recombinant protein mixed in 500 ul interaction buffer (50 mM Tris-HCl pH 7.5, 10 mM MgCl2, 100 mM NaCl, 1 mM PMSF, 0.04% NP-40), 4°C 1 h; GST fusions held on GSH sepharose; blot probed with antibodies against the CBP-tag. Particulars: both partners purified.

T1 sequence (Q43125 whole entry): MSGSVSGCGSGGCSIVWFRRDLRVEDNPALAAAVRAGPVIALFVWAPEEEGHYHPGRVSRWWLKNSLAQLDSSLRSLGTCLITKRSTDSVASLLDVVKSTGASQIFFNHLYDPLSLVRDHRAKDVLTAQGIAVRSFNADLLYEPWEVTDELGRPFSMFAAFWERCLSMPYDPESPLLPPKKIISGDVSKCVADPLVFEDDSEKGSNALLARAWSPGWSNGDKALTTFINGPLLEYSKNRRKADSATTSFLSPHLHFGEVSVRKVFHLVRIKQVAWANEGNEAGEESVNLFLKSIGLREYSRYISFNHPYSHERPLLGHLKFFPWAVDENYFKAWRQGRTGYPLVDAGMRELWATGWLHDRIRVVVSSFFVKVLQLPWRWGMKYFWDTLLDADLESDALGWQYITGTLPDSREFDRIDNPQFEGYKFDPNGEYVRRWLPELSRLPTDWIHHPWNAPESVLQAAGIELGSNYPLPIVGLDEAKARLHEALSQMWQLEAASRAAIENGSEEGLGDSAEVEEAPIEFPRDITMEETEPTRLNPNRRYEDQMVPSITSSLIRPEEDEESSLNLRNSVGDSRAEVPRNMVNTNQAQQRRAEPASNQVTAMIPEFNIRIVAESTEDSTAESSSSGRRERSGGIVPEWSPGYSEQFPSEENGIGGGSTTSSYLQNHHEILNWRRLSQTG

B1: GST-FIN219 (FIN219/JAR1 full-length, recombinant) (natural protein, Arabidopsis thaliana, UniProt Q9SKE2 1-575, looked up)
chain: MLEKVETFDMNRVIDEFDEMTRNAHQVQKQTLKEILLKNQSAIYLQNCGLNGNATDPEEAFKSMVPLVTDVELEPYIKRMVDGDTSPILTGHPVPAISLSSGTSQGRPKFIPFTDELMENTLQLFRTAFAFRNRDFPIDDNGKALQFIFSSKQYISTGGVPVGTATTNVYRNPNFKAGMKSITSPSCSPDEVIFSPDVHQALYCHLLSGILFRDQVQYVFAVFAHGLVHAFRTFEQVWEEIVTDIKDGVLSNRITVPSVRTAMSKLLTPNPELAETIRTKCMSLSNWYGLIPALFPNAKYVYGIMTGSMEPYVPKLRHYAGDLPLVSHDYGSSEGWIAANVTPRLSPEEATFAVIPNLGYFEFLPVSETGEGEEKPVGLTQVKIGEEYEVVITNYAGLYRYRLGDVVKVIGFYNNTPQLKFICRRNLILSINIDKNTERDLQLSVESAAKRLSEEKIEVIDFSSYIDVSTDPGHYAIFWEISGETNEDVLQDCCNCLDRAFIDAGYVSSRKCKTIGALELRVVAKGTFRKIQEHFLGLGSSAGQFKMPRCVKPSNAKVLQILCENVVSSYFSTAF
notes: FIN219/JAR1, Arabidopsis thaliana, full-length; also called GST-FIN219 full-length; FIN219FL/pGEX-4T-1; source: E. coli BL21 (DE3) codon plus, purified (GSH sepharose), acetone-precipitated and resuspended in PBS
Take B1: the binding result is given as “binds”.

Source of the values: article PMC5880400, “FIN219/JAR1 and cryptochrome1 antagonize each other to modulate photomorphogenesis under blue light in Arabidopsis” (PLoS Genetics, 2018).
